Values joined by “and” are separate entries in the source; they are usually repeats but may differ in a detail not shown here. Identical values can stand only once.
What was measured:
[1] = molecular target: human class II MHC molecules on Raji cells; assay: competition with ^125 I-HIV-1 Nef(123-160) on Raji cells
[2] = molecular target: class II MHC antigens on antigen-presenting cells of human peripheral mononuclear cells
[3] = molecular target: class II MHC antigens on antigen-presenting cells of human peripheral mononuclear cells; remark: listed apart in the source
[4] = molecular target: class II MHC antigens on antigen-presenting cells of human peripheral mononuclear cells; remark: listed apart in the source
[5] = molecular target: HLA-DR on Raji cells (human); assay: antibody blocking of labelled peptide binding to Raji cells
[6] = molecular target: murine class II MHC molecules on A20 cells (I-A^d and I-E^d); assay: competition with ^125 I-MMTV ORF(76-119) on A20 cells
[7] = molecular target: human class II MHC molecules on Raji cells; assay: competition with ^125 I-SEA on Raji cells
[8] = molecular target: murine class II MHC molecules on A20 cells (I-A^d and I-E^d); assay: dose-response competition with ^125 I-SEA on A20 cells
[9] = molecular target: human class II MHC molecules on Raji cells
[10] = molecular target: DR1 on DR1-transfected L cells (Homo sapiens (Human)) (UniProt P01903)
[11] = molecular target: murine class II MHC molecules on A20 cells (I-A^d and I-E^d)
[12] = molecular target: human class II MHC molecules on Raji cells; remark: listed apart in the source

SEE (from UniProt P12993) (ligand) showed an IC50 [1] of 2000 nM.

Work on “HIV-1 Nef protein (from UniProt P03406) (ligand)” yielded an IFNγ (U/ml) in supernatants of whole PMNC, 96 h [2] of 1500 U/ml and a stimulation index (SI) of proliferation of whole human PMNC [3] of 26.4 SI.

In the case of HIV-1 Nef(156-186) (peptide), the stimulation index (SI) of human PMNC proliferation induced by Nef [4] is reported as 19.6 SI and the stimulation index (SI) of human PMNC proliferation induced by SEA [4] is reported as 16.6 SI.

In the case of “Clone L243, a monoclonal antibody specific for HLA-DR”, the percent reduction of ^125 I-HIV-1 Nef(123-160) binding [5] is reported as 35%.

“staphylococcal enterotoxin A (from UniProt P0A0L2) (ligand)” was tested, and the IC50 [6] was 1800 nM, the IC50 [7] was 200 nM and the IFNγ (U/ml) in supernatants of whole PMNC, 72 h [2] was 3000 U/ml. It also gave a fold more effective a competitor than MMTV ORF(76-119) [8] of 20 times, a stimulation index (SI) of proliferation of whole human PMNC [3] of 164 SI and a CPM bound in the absence of competitors [9] of 31500 CPM. For the same substance, the CPM bound in the absence of competitors [10] was 5710 CPM and the CPM bound in the absence of competitors [11] was 6380 CPM.

Substance HIV-1 Nef(123-160) (peptide) has an IC50 [1] of 30000 nM, a stimulation index (SI) of human PMNC proliferation induced by Nef [4] of 3.9 SI and a stimulation index (SI) of human PMNC proliferation induced by SEA [4] of 6.2 SI. For the same substance, the percent reduction of ^125 I-SEA binding [12] was 20% and 40%.
